Blank lines part the entries; values can stand above or below the compound they belong to.
How the values were obtained:
[1] = biological target: T1, Protein phosphatase 2A1 (PP2A1) (Homo sapiens, UniProt P67775); experiment: Protein phosphatase assay, TR-FRET detection with [Eu3+]GST-PDZ, inhibition experiments; type: biochemical; settings: PP2A1 15 pM; substrate biotin-HRRAARYLEpSAV-OH; quenched after 60 min; condition Dilution
T1 construct: purchased Biomol Research Laboratories (Plymouth Meeting, Pa.)
Protocol: (§1) Assays were carried out in 96-well black, low binding, Microfluor2 plates (Dynex, Va.). Assay plates were read using a Victor^2V microplate analyzer (Perkin Elmer Wallac (Turku, Finland)), with 337 nm excitation. Fluorescence emission was measured at 665 nm for FRET signal and 615 nm for Eu^3+ chelate, and results are expressed as the ratio of fluorescence intensities, FI665nm/FI615 nm.
For the initial time courses, 20 μl of biotin-HRRAARYLEpSAV-OH (SEQ. ID No. 4) (100 nM in phosphatase buffer: 50 mM Tris, pH 7.4, 10% glycerol, 14 mM β-mercaptoethanol, 0.2 mg/ml BSA) was mixed with 20 μl of PP2A1 (2× in phosphatase buffer), and the reaction solution was incubated at 32° C. At different time points, 40 μl aliquots were quenched with […] of a 5×TR-FRET mixture of Cantharidic Acid (5 μM, [Eu^3+]GST-PDZ (1.6 nM), and [665]SA (15.6 nM) in PBSTB, for 60 min, at 25° C., and read.
For the inhibition experiments, 2 μl of inhibitor were added to 20 μl PP2A1 (30 pM in phosphatase buffer), and the reaction was initiated by addition of 20 μl of peptide substrate (100 nM in phosphatase buffer). The reaction was quenched after 60 min with the addition of 10 μl of 5×TR-FRET quenching/detection mixture, as described above. Background was measured from a reaction mixture with substrate, detection mixture and no enzyme.

[2] = biological target: T2, Porcine carboxypeptidase B (CPB) (Sus scrofa, UniProt P09955); experiment: Carboxypeptidase B assay, TR-FRET detection with [Eu3+]GST-PDZ, inhibition experiments; type: biochemical; settings: CPB 100 pM; substrate biotin-HRRSARYLESSVR-OH; quenched after 30 min; condition Dilution
T2 construct: purchased Sigma (St. Louis, Mo.)
T2 sequence (P09955 111-416): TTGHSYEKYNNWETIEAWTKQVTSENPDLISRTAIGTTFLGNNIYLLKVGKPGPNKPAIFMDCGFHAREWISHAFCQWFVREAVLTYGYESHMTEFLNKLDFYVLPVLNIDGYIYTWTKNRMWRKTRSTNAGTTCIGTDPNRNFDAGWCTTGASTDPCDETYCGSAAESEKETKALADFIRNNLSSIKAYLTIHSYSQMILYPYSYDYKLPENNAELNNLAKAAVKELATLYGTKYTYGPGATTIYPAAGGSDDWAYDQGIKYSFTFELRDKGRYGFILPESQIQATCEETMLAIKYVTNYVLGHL
Protocol: as §1
For the initial time courses, 20 μl of biotin-HRRSARYLESSVR-OH (SEQ. ID No. 7), (100 nM in 10 mM phosphate, 150 mM NaCl, 0.05% tween-20, 0.1% BSA (PBSTB)) was mixed with 20 μl of CPB (2× in PBSTB), and the reaction quenched with 10 μl of a 5×TR-FET mixture of PCI (1 μM, [Eu^3+]GST-PDZ (6.25 nM), and [X1665]SA (62.5 nM) in PBSTB, for 60 min, at 25° C., and read.
For the inhibition experiments, 2 Ill of inhibitor was added to 20 μl CPB (200 pM in PBSTB), and the reaction was initiated by addition of 20 μl peptide substrate (100 nM in PBSTB). The reaction was quenched after 30 min with the addition of 10 μl of 5×TR-FRET quenching/detection mixture, as described above. Background was measured from a reaction mixture with substrate, detection mixture and no enzyme.

Biotin-…-OH [3] = experiment: TR-FRET, 4 nM product peptide plus 36 nM masked substrate biotin-…pSAV-OH; optimal [Eu3+]GST-PDZ 0.3 nM and [XL665]SA 3.1 nM
Biotin-…-OH [4] = experiment: TR-FRET, 4 nM product peptide plus 36 nM masked substrate biotin-…-NH2 (Asp-N pair); data not shown
Biotin-…-OH [5] = experiment: TR-FRET, 4 nM product peptide plus 36 nM masked substrate biotin-…-OH (carboxypeptidase B pair); data not shown
[6] = biological target: Porcine carboxypeptidase B (porcine) (UniProt P09955); experiment: cell-based or functional assay

T1 sequence (P63151 whole entry): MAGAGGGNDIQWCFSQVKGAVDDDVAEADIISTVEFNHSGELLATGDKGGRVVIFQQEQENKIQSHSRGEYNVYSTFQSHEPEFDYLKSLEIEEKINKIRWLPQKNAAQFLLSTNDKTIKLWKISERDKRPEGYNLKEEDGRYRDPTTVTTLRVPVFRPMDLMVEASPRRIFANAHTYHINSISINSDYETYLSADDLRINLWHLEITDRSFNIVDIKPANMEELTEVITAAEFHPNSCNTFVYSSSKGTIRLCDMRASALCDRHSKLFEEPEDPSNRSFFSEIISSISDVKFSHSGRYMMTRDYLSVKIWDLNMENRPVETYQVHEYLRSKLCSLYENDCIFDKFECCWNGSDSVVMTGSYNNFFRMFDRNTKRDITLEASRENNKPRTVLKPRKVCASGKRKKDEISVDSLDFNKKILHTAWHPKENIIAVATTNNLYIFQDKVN
T1 sequence (P30153 whole entry, further chain): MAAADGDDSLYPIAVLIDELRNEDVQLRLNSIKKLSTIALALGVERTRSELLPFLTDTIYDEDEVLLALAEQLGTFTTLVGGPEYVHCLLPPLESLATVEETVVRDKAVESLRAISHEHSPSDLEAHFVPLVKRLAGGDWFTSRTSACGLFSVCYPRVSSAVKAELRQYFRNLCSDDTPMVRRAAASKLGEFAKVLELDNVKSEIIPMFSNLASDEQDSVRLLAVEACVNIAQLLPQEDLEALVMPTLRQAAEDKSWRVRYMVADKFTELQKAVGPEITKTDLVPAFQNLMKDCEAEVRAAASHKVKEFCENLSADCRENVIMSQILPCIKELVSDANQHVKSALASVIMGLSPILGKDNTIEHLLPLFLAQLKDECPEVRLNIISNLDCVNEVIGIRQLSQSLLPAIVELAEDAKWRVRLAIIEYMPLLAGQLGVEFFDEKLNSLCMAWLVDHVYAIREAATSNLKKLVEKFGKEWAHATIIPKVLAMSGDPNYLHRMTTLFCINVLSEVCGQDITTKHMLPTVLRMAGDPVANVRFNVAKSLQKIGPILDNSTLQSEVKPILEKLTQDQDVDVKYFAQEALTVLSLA
T1 sequence (P67775 whole entry): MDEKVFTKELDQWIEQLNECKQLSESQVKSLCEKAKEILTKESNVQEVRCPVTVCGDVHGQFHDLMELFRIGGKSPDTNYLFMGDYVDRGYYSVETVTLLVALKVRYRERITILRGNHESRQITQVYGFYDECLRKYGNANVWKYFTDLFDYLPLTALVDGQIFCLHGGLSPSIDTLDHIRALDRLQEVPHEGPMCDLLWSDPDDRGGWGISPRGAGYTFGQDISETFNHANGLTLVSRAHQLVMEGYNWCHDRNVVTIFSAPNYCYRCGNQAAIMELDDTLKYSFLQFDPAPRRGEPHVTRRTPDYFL

Compound: CC1(C(=O)O)C2CCC(O2)C1(C)C(=O)O (stereo not shown) [Cantharidic Acid, cantharidic acid]
- IC50 [1]: 56 nM

Compound: C=C1[C@@H](O)[C@@H]2O[C@]3(CC[C@H](/C=C/[C@@H](C)[C@@H]4CC(C)=C[C@@]5(O[C@H](C[C@@](C)(O)C(=O)O)CC[C@H]5O)O4)O3)CC[C@H]2O[C@@H]1[C@@H](O)C[C@H](C)[C@H]1O[C@@]2(CCCCO2)CC[C@H]1C [Okadaic Acid, okadaic acid]
- IC50 [1]: 0.015 nM

Compound: PCI: potato carboxypeptidase inhibitor from Sigma; the abbreviation list calls it protein carboxypeptidase inhibitor (QQHADPICNKPCKTHDDCSGAWFCQACWNSARTCGPYVG)
- IC50 [2]: 10 nM

- signal-to-background (Biotin-…-OH [3]): > 10 fold
- signal-to-background (Biotin-…-OH [4]): > 10 fold
- signal-to-background (Biotin-…-OH [5]): > 10 fold
Compound: [Eu3+]GST-PDZ (GST fused to PDZ module 3 of PSD-95, labeled with Eu3+ chelate ITC) (from UniProt P31016 300-402)

- IC50 (inhibition of CPB hydrolysis of biotin-…-OH, TR-FRET read-out) [6]: 10 nM
Compound: potato carboxypeptidase inhibitor (from UniProt P01075 1-39)

— US20050164311A1, “Biological assay detection method” (priority 2001, published 2005)
